The target in assay [1] is T1, human PSMA expressed on cells (human, UniProt Q04609 1-750).
T1 construct: whole, on cells; also called SupT1-PSMA; SupT1 cells expressing PSMA
Nature of the assay: flow cytometry, MFI against concentration, SupT1-PSMA clone 30 (high).

Assay [2] deals with T2, Recombinant PSMA-His (sino biologicals) (UniProt Q04609 44-750).
T2 construct: also called soluble PSMA; recombinant soluble PSMA; not shown: His tag
The experiment in a line: SPR, Biacore T200; VHH-Fc captured on Protein A chip, PSMA-His as analyte, 1:1 Langmuir fit. On the procedure: (§1) Kinetic affinity for soluble PSMA was determined using Biacore T200 instrument. Recombinant purified antibodies were captured on a Protein A chip #7 at 10 μl/min for 60 s, aiming at 100 RU. Recombinant PSMA-His (sino biologicals) dialysed in HBS-P+ buffer was used as analyte from 1 μM with 1:2 serial dilutions for 10 points and flown at 30 μl/min for 150 s with 300 s dissociation time. A double reference subtraction was applied. Sensograms fitted with 1:1 Langmuir model.
Affinity was determined by surface plasmon resonance on a Biacore T200 instrument against recombinant soluble PSMA. Affinities were measured in the nM range for both antibodies (Table 3)
(In general: Surface plasmon resonance follows binding to a sensor surface in real time, without labels.)

The target of assay [3] is T2, Recombinant PSMA-His (sino biologicals). The experiment in a line: SPR, Biacore T200, pH 6; antibody captured on Protein A chip, PSMA-His as analyte, 1:1 Langmuir fit. Here is the method: as §1, with “soluble PSMA at different pH was determined” for “soluble PSMA was determined”, “A chip #6, pre-equilibrated the required PH (pH7.4, pH7, pH6.5 and pH6) using buffered HBS-P+, at 10” for “A chip #7 at 10”, “dialysed in HBS-P+buffer and adjusted to the required PH was used” for “dialysed in HBS-P+ buffer was used”

Assay [4] has the same target. Nature of the assay: SPR, Biacore T200, pH 7; antibody captured on Protein A chip, PSMA-His as analyte, 1:1 Langmuir fit. Here is the method:
as §1, with “soluble PSMA at different pH was determined” for “soluble PSMA was determined”, “A chip #6, pre-equilibrated the required PH (pH7.4, pH7, pH6.5 and pH6) using buffered HBS-P+, at 10” for “A chip #7 at 10”, “dialysed in HBS-P+buffer and adjusted to the required PH was used” for “dialysed in HBS-P+ buffer was used”

Assay [5] has the same target. Nature of the assay: SPR, Biacore T200, pH 6.5; antibody captured on Protein A chip, PSMA-His as analyte, 1:1 Langmuir fit. On the procedure:
as §1, with “soluble PSMA at different pH was determined” for “soluble PSMA was determined”, “A chip #6, pre-equilibrated the required PH (pH7.4, pH7, pH6.5 and pH6) using buffered HBS-P+, at 10” for “A chip #7 at 10”, “dialysed in HBS-P+buffer and adjusted to the required PH was used” for “dialysed in HBS-P+ buffer was used”

Assay [6] has the same target. The experiment in a line: SPR, Biacore T200, pH 7.4; antibody captured on Protein A chip, PSMA-His as analyte, 1:1 Langmuir fit. On the procedure:
as §1, with “soluble PSMA at different pH was determined” for “soluble PSMA was determined”, “A chip #6, pre-equilibrated the required PH (pH7.4, pH7, pH6.5 and pH6) using buffered HBS-P+, at 10” for “A chip #7 at 10”, “dialysed in HBS-P+buffer and adjusted to the required PH was used” for “dialysed in HBS-P+ buffer was used”

Assay [7] has as its target T1, human PSMA expressed on cells. Nature of the assay: flow cytometry histograms, detection aMu-Fc 647, concentration and axis values not given.

T2 sequence (Q04609 44-750 limits assumed): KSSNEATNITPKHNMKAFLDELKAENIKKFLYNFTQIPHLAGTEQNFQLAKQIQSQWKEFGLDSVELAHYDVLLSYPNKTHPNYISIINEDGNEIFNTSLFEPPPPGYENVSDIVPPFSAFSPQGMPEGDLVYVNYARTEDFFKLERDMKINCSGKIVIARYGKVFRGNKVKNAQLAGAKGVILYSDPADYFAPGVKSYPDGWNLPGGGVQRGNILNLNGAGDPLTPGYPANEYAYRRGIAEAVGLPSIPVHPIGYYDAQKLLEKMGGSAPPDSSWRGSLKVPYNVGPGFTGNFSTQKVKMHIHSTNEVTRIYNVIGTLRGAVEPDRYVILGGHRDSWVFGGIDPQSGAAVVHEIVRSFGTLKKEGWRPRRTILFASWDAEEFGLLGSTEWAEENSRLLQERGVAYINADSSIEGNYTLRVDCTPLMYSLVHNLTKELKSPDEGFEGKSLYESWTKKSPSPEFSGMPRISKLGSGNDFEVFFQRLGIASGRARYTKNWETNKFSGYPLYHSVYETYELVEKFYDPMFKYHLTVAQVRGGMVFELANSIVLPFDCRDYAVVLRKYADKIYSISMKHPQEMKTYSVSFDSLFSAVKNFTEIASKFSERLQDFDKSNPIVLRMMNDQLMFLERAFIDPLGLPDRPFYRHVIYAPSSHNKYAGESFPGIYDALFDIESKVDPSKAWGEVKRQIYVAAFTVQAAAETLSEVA
T1 sequence (Q04609 whole entry): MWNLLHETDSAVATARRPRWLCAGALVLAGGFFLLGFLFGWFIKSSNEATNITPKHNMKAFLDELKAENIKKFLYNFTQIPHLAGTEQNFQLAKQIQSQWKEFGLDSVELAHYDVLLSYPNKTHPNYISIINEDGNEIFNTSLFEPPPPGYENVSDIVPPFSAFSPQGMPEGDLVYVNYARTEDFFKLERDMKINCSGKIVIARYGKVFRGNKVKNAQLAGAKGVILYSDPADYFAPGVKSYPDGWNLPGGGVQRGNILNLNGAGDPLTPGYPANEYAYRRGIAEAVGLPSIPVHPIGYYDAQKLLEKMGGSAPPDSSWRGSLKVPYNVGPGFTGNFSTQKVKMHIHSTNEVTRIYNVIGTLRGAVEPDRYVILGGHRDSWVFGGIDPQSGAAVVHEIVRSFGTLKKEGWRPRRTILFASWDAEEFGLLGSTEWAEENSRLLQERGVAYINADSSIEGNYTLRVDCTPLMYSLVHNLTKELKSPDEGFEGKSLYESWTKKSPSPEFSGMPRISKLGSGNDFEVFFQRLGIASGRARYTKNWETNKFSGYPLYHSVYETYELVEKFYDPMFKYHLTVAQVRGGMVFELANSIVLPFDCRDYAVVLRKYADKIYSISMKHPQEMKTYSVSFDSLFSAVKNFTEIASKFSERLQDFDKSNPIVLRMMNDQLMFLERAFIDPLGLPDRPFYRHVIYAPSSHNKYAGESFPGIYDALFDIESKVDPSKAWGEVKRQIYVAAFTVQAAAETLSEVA

B1: dAb clone B8, C Myc tagged (VHH)
VHH: QVQLQQSGGGLVQAGGSLRLSCAASGRTYGRYVMGWFRQIPGKEREFVAAISWSGSNTNYADSVKGRFTISRDNAKNTLYLQMNSLKPEDTAVYYCAASGQWIIPTTARGYDDWGQGTQVTVSS
notes: Monomeric dAb from IPTG-induced TG1 supernatant, detected with anti-C Myc; also called B08; not shown: C-Myc tag
The EC50 (read off the curve) is the concentration at which the effect is half-maximal. The low end stands for an effect from little substance, the high end for a need for much substance. Turning to B1, the “EC50 (read off the curve)” value in assay [1] is roughly 1 µg/mL.

B2: B08 VHH-Fc (Fc fusion)
chain: QVQLQQSGGGLVQAGGSLRLSCAASGRTYGRYVMGWFRQIPGKEREFVAAISWSGSNTNYADSVKGRFTISRDNAKNTLYLQMNSLKPEDTAVYYCAASGQWIIPTTARGYDDWGQGTQVTVSS
notes: also called B8; clone B8; not shown: Fc part of the VHH-Fc format
Usually Kd stands for the equilibrium constant for the complex coming apart. As for B2, the Kd in assay [2] is 212 nM.

B3: 7A12 (antibody, V domains shown)
VH: QFQLQQSGPELVKPGASVKISCKASGYAFSSSWMNWVRQRPGKGLEWIGRIYPGDGDTTYNGNFKDKATLTAAKSSSTAYIQINSLTSEDSAVYFCARGTGYLWYFDVWGAGTTVTVSS
VL: DIQMTQSPSSLSTSLGGKVTITCKASQDINENVAWYQHKPGKGPRLLIWYTSALQSGIPSRFSGSGSGRDYSFSISNLEPEDIATYYCQQYDNLPFTFGSGTKLEIKR
notes: Tested as 'recombinant purified antibody' captured on a Protein A chip; also called mu7A12; AU number 30531
For B3, the Kd in assay [3] came out at 0.574 nM; in assay [4] it was 1.77 nM; in assay [5] it was 1.02 nM; in assay [6], 2.29 nM.

B4: NGS2 dAb in murine IgG2A-Fc format (Fc fusion)
chain: QVQLQESGGGWVQAGGSLRLSCAASGRTSRTYTMGWFRQAPGKDGVFVAGITWSTWSSDKTQYLDSVNSRFTISRDNARNTVYLQMNNLKPEDTAVYYCAATPRYYGVAVPTTRGPYDYWGQGTQVTVSS
notes: also called clone 2; dAb 2; not shown: murine IgG2A Fc
Take B4: in assay [7], the binding result is recorded as “binds”.

B5: 7A12 humanised (antibody, V domains shown)
VH: QVQLVQSGAEVKKPGASVKVSCKASGYTFTSSWMNWVRQAPGQGLEWMGRIYPGDGDTNYAQKFQGRVTMTRDTSISTAYMELSRLRSDDTAVYYCARGTGYLWYFDVWGQGTMVTVSS
VL: EIVLTQSPATLSLSPGERATLSCRASQDINENLAWYQQKPGQAPRLLIYYTSNRATGIPARFSGSGSGRDFTLTISSLEPEDFAVYYCQQYDNLPFTFGQGTKVEIKR
notes: Tested as 'recombinant purified antibody' captured on a Protein A chip; also called hu7A12; AU number 42396
Regarding B5, the dissociation constant (Kd) came to 0.532 nM in assay [3], 3.3 nM in assay [4], 1.71 nM in assay [5] and 3.66 nM in assay [6].

B6: dAb clone G7, C Myc tagged (VHH)
VHH: QVQLQESGGGSVQAGGSLRLSCAASERTFSTYGTGWFRQAPGKEREFVAGISGRGGYTSYIDSVKGRFTTSRDNAKNTVYLQMNSLKPEDTAVYYCAADRRMVWGTVRSPDEYDSWGQGTQVTVSS
notes: Monomeric dAb from IPTG-induced TG1 supernatant, detected with anti-C Myc; also called G07; not shown: C-Myc tag
On to B6, for which the “EC50 (read off the curve)” value in assay [1] was roughly 0.7 µg/mL.

B7: G07 VHH-Fc (Fc fusion)
chain: QVQLQESGGGSVQAGGSLRLSCAASERTFSTYGTGWFRQAPGKEREFVAGISGRGGYTSYIDSVKGRFTTSRDNAKNTVYLQMNSLKPEDTAVYYCAADRRMVWGTVRSPDEYDSWGQGTQVTVSS
notes: also called G7; clone G7; not shown: Fc part of the VHH-Fc format
Consider B7, for which, in assay [2], the Kd turned out to be 316 nM.

Source of the values: patent US20240252534A1 (AUTOLUS, published 2024).
